Values joined by “and” are separate entries in the source; they are usually repeats but may differ in a detail not shown here. Identical values can stand only once. Like-named read-outs stand apart in the source and are kept apart here.
Key:
[1] = biological target: N,N′-diacetyl-Lys-D-Ala-D-Ala; experiment: ITC, 25 C, asymptote of the non-competitive binding model
human α-glycoprotein = experiment: Protein binding by isothermal titration microcalorimetry; settings: α-glycoprotein […]10^−5M
Procedure: (§1) Integrated heat effects, after correction for heats of dilution, were analyzed by non-linear regression using a simple single-site binding model with the standard Microcal ORIGIN software package. Raw data (μcal/sec) for each injection were integrated to give the total heat effect per addition, then divided by amount of injectant to give kcal/mole of injectant. The same integration was applied for control dilution effects, and this was subtracted from the actual titration data. This provided a differential of the binding curve in which the extent of binding is proportional to the total heat liberated (or absorbed). This was then analyzed by non-linear regression methods in terms of various standard binding models.

human albumin = human albumin (Homo sapiens, UniProt P02768); experiment: as above
Procedure: as §1

[2] = biological target: N,N′-diacetyl-Lys-D-Ala-D-Ala; experiment: ITC, 10 C, HSA 0 µM
[3] = biological target: N,N′-diacetyl-Lys-D-Ala-D-Ala; experiment: ITC, 25 C, HSA 0 µM
[4] = biological target: N,N′-diacetyl-Lys-D-Ala-D-Ala; experiment: ITC, 25 C, HSA 513 µM present
[5] = biological target: Human serum albumin (human) (UniProt P02768); experiment: ITC, 25 C, single-site model
[6] = biological target: Human α-glycoprotein (human) (UniProt P02763); experiment: ITC, 25 C, single-site model
Chain of Human α-glycoprotein (human) (P02763 19-201): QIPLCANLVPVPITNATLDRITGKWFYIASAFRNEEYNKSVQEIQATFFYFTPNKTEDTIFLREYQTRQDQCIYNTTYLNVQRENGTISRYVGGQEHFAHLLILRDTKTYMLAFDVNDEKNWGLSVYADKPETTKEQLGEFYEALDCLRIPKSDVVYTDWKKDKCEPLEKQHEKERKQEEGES

[7] = biological target: Human serum albumin (human) (UniProt P02768); experiment: calculated from ITC Ka; antibiotic 1 µM, HSA 6x10^-4 M assumed
[8] = biological target: Human serum albumin (human) (UniProt P02768); experiment: calculated from ITC Ka; antibiotic 10 µM, HSA 6x10^-4 M assumed
[9] = biological target: Human serum albumin (human) (UniProt P02768); experiment: calculated from ITC Ka; antibiotic 100 µM, HSA 6x10^-4 M assumed
[10] = biological target: Human α-glycoprotein (human) (UniProt P02763); experiment: calculated from ITC Ka; antibiotic 1 µM, α-glycoprotein 1.5x10^-5 M assumed
[11] = biological target: Human α-glycoprotein (human) (UniProt P02763); experiment: calculated from ITC Ka; antibiotic 10 µM, α-glycoprotein 1.5x10^-5 M assumed
[12] = biological target: Human α-glycoprotein (human) (UniProt P02763); experiment: calculated from ITC Ka; antibiotic 100 µM, α-glycoprotein 1.5x10^-5 M assumed
[13] = biological target: N,N′-diacetyl-Lys-D-Ala-D-Ala; experiment: ITC, 37 C, HSA 0 µM
[14] = biological target: N,N′-diacetyl-Lys-D-Ala-D-Ala; experiment: ITC, 10 C, no HSA, average
[15] = biological target: N,N′-diacetyl-Lys-D-Ala-D-Ala; experiment: ITC, 25 C, no HSA, average
[16] = biological target: N,N′-diacetyl-Lys-D-Ala-D-Ala; experiment: ITC, 37 C, no HSA, average
Bovine albumin (bovine) = Bovine albumin (bovine) (UniProt P02769); experiment: ITC, 25 C, single-site model
Chain of Bovine albumin (bovine) (P02769 25-607 limits assumed): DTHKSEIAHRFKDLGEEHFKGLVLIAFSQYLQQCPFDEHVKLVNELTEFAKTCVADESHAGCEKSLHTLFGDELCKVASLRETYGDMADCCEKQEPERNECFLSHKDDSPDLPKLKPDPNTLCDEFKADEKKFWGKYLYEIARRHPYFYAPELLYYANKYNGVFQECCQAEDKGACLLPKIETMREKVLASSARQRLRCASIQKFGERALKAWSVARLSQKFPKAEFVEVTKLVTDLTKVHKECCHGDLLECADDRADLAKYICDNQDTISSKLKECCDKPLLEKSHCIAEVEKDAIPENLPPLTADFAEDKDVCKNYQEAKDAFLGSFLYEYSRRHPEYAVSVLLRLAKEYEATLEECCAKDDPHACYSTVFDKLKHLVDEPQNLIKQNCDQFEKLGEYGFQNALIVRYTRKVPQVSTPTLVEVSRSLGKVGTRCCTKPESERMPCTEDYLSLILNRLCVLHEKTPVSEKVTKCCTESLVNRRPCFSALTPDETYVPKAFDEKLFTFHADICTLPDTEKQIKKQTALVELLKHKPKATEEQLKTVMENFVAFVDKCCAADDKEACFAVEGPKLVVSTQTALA

Dog albumin (dog) [17] = biological target: Dog albumin (dog) (UniProt P49822); experiment: ITC, 25 C, single-site model
Chain of Dog albumin (dog) (P49822 25-608 limits assumed): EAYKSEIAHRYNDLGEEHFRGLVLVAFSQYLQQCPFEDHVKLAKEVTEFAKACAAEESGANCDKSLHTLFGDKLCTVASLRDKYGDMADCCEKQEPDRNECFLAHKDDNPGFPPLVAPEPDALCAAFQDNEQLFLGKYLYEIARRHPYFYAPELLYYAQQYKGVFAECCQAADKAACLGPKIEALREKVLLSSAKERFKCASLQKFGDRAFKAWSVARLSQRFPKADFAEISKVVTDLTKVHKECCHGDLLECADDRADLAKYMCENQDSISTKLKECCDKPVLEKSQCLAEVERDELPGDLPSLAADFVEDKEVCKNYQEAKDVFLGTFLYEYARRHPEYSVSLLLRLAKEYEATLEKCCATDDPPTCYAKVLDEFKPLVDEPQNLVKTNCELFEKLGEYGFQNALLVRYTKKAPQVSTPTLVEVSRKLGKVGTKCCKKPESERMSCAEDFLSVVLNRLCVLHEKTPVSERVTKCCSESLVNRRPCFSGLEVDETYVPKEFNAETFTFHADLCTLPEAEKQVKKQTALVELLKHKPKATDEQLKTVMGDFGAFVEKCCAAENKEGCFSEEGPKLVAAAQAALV

Rat albumin (rat) [18] = biological target: Rat albumin (rat) (UniProt P02770); experiment: ITC, 25 C, single-site model
Chain of Rat albumin (rat) (P02770 25-608 limits assumed): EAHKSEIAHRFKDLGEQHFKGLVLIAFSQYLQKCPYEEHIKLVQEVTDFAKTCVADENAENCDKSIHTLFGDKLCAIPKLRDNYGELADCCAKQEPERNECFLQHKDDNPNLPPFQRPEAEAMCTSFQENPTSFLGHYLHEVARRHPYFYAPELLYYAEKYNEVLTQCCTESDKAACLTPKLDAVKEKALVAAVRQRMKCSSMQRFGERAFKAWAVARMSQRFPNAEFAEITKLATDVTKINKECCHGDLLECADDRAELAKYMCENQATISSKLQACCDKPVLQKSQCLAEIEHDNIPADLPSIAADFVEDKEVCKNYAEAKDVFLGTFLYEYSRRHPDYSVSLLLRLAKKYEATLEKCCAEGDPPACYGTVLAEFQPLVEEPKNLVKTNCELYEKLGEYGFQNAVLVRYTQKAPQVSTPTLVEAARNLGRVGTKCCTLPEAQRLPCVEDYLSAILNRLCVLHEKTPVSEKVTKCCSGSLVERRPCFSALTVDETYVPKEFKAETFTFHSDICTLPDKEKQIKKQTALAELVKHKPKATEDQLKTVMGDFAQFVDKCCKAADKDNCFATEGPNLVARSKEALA

Dog albumin (dog) [19] = biological target: Dog albumin (dog) (UniProt P49822); experiment: ITC, 37 C, single-site model
[20] = biological target: Human serum albumin (human) (UniProt P02768); experiment: ITC, 37 C, single-site model
[21] = biological target: Human α-glycoprotein (human) (UniProt P02763); experiment: ITC, 37 C, single-site model
Rat albumin (rat) [22] = biological target: Rat albumin (rat) (UniProt P02770); experiment: ITC, 37 C, single-site model
[23] = biological target: N,N′-diacetyl-Lys-D-Ala-D-Ala; experiment: ITC, 25 C, HSA 104 µM present
[24] = biological target: N,N′-diacetyl-Lys-D-Ala-D-Ala; experiment: ITC, 25 C, HSA 288 µM present
[25] = biological target: N,N′-diacetyl-Lys-D-Ala-D-Ala; experiment: ITC, 25 C, HSA 430 µM present
[26] = biological target: N,N′-diacetyl-Lys-D-Ala-D-Ala
[27] = biological target: N,N′-diacetyl-Lys-D-Ala-D-Ala; remark: listed apart in the source
[28] = biological target: N,N′-diacetyl-Lys-D-Ala-D-Ala; experiment: ITC, 37 C, HSA 516 µM present
[29] = biological target: N,N′-diacetyl-Lys-D-Ala-D-Ala; remark: listed apart in the source
[30] = biological target: N,N′-diacetyl-Lys-D-Ala-D-Ala; experiment: ITC, 25 C, HSA 34.2 µM present
[31] = biological target: N,N′-diacetyl-Lys-D-Ala-D-Ala; remark: listed apart in the source
[32] = biological target: N,N′-diacetyl-Lys-D-Ala-D-Ala; experiment: ITC, 25 C, apparent Kdiss plateau at high HSA
[33] = biological target: N,N′-diacetyl-Lys-D-Ala-D-Ala; experiment: ITC, preliminary experiments, no serum proteins
[34] = biological target: Human serum albumin (human) (UniProt P02768); experiment: calculated from ITC Ka; antibiotic 165 µM, HSA 6x10^-4 M assumed
[35] = biological target: Human serum albumin (human) (UniProt P02768); experiment: calculated from ITC Ka; antibiotic 250 µM, HSA 6x10^-4 M assumed
[36] = biological target: Human serum albumin (human) (UniProt P02768); experiment: calculated from ITC Ka; antibiotic 500 µM, HSA 6x10^-4 M assumed
[37] = biological target: Human α-glycoprotein (human) (UniProt P02763); experiment: calculated from ITC Ka; antibiotic 165 µM, α-glycoprotein 1.5x10^-5 M assumed
[38] = biological target: Human α-glycoprotein (human) (UniProt P02763); experiment: calculated from ITC Ka; antibiotic 250 µM, α-glycoprotein 1.5x10^-5 M assumed
[39] = biological target: Human α-glycoprotein (human) (UniProt P02763); experiment: calculated from ITC Ka; antibiotic 500 µM, α-glycoprotein 1.5x10^-5 M assumed

Substance “dalbavancin-HSA complex (from UniProt P02768 25-609)” has a Kd [1] of 35 µM.
With Teicoplanin [reference compound] the Calculated percent binding (human α-glycoprotein; antibiotic 1 μM) was 9.6%, the Calculated percent binding (human α-glycoprotein; antibiotic 10 μM) was 9.1% and the Calculated percent binding (human α-glycoprotein; antibiotic 100 μM) was 6.0%. The “binding stoichiometry modeling (drug:protein)” value (human albumin) was 1:1 binding and the Calculated percent binding (human albumin; antibiotic 100 μM, human serum albumin 6×10^−4 M) was 98.0%.
“Vancomycin hydrochloride (Sigma V-2002, fw 1485.7) (peptide)” was tested, and the Ka [2] was 690000 M⁻¹, the Kd [2] was 1450 nM and the ΔH [2] was -9.49 kcal/mol. The ΔS [2] was -6.8 eu, the Ka [3] was 340000 M⁻¹ and 360000 M⁻¹ and the Kd [3] was 2940 nM and 2780 nM. For the same substance, the ΔH [3] was -10.7 kcal/mol and -12.9 kcal/mol, the ΔS [3] was -10.6 eu and -17.8 eu and the Ka [4] was 290000 M⁻¹. It also gave a Kd [4] of 3.45 µM, a ΔH [4] of -10.1 kcal/mol and a ΔS [4] of -8.8 eu.
Teicoplanin (peptide) was tested, and the Ka [5] was 96000 M⁻¹, the Ka [6] was 7000 M⁻¹ and the calculated percent bound [7] was 98.3%. For the same substance, the calculated percent bound [8] was 98.3%, the calculated percent bound [9] was 98% and the calculated percent bound [10] was 9.6%. It also gave a calculated percent bound [11] of 9.1% and a calculated percent bound [12] of 6%.
With Dalbavancin (peptide) the ΔH [2] was -10.3 kcal/mol (2×) and -8.95 kcal/mol, the ΔS [2] was -9.6 eu and -4.3 eu and -9.9 eu and the Ka [13] was 130000 M⁻¹ and 110000 M⁻¹. For the same substance, the Kd [13] was 7.69 µM and 9.09 µM, the ΔH [13] was -12.5 kcal/mol and -17.4 kcal/mol and the ΔS [13] was -16.8 eu and -33.2 eu. For the same substance, the Kd [14] was 1400 nM, the Kd [15] was 3.1 µM and the Kd [16] was 8.4 µM. It also gave a Ka (Bovine albumin (bovine)) of 138000 M⁻¹, a Ka (Dog albumin (dog) [17]) of 62000 M⁻¹ and a Ka [5] of 135000 M⁻¹. For the same substance, the Ka [6] was 184000 M⁻¹, the Ka (Rat albumin (rat) [18]) was 310000 M⁻¹ and the Ka (Dog albumin (dog) [19]) was 50000 M⁻¹. For the same substance, the Ka [20] was 133000 M⁻¹, the Ka [21] was 480000 M⁻¹ and the Ka (Rat albumin (rat) [22]) was 280000 M⁻¹. It also gave a Ka [23] of 34900 M⁻¹, a Kd [23] of 28.7 µM and a ΔH [23] of -18.6 kcal/mol. The ΔS [23] was -41.7 eu, the Ka [24] was 31000 M⁻¹ and the Kd [24] was 32.3 µM. For the same substance, the ΔH [24] was -21.1 kcal/mol, the ΔS [24] was -50 eu and the Ka [25] was 28400 M⁻¹. The Kd [25] was 35.2 µM, the ΔH [25] was -19.5 kcal/mol and the ΔS [25] was -44.9 eu. It also gave a Ka [26] of 21800 M⁻¹, a Kd [26] of 45.9 µM and a ΔH [26] of -15 kcal/mol. For the same substance, the ΔS [26] was -30.4 eu, the Ka [27] was 12500 M⁻¹ and the Kd [27] was 80 µM. For the same substance, the ΔH [27] was -98.6 kcal/mol, the ΔS [27] was -299 eu and the Ka [28] was 9570 M⁻¹. It also gave a Kd [28] of 105 µM, a ΔH [28] of -26.6 kcal/mol and a ΔS [28] of -67.6 eu. For the same substance, the Ka [29] was 118000 M⁻¹, the Kd [29] was 8.47 µM and the ΔH [29] was -27.8 kcal/mol and -26.4 kcal/mol. The ΔS [29] was -70.1 eu and -65.5 eu, the Ka [30] was 35000 M⁻¹ and the Kd [30] was 28.6 µM. For the same substance, the ΔH [30] was -20 kcal/mol, the ΔS [30] was -46.2 eu and the Ka [31] was 27600 M⁻¹. For the same substance, the Kd [31] was 36.2 µM, the ΔH [31] was -16.9 kcal/mol and the ΔS [31] was -36.5 eu. The Kd [32] was 35 µM, the Kd [33] was 1 to 10 µM and the calculated percent bound [7] was 98.8%. It also gave a calculated percent bound [8] of 98.8%, a calculated percent bound [9] of 98.7% and a calculated percent bound [34] of 98.6%. For the same substance, the calculated percent bound [35] was 98.5%, the calculated percent bound [36] was 98% and the calculated percent bound [10] was 73%. For the same substance, the calculated percent bound [11] was 68.2%, the calculated percent bound [12] was 26.2% and the calculated percent bound [37] was 16.9%. For the same substance, the calculated percent bound [38] was 11.4% and the calculated percent bound [39] was 5.9%.

From patent US20050004011A1, “Compositions and methods for treating bacterial infections with protein-dalbavancin complexes” (priority 2002, published 2005)
